{"source": "patent US8192734B2", "about": "“Compositions and methods for bone strengthening” (Cornell University, priority 2007, dated 2012)", "assay_type_in_all_cases": "in vivo, pig", "key": {"[1]": {"test_system": "weanling pigs fed high P diet", "assay": "Examples 4-8: radiographic bone density and metacarpal histomorphometry", "conditions": "8 wk", "method": "As in Examples 1-3, the animal protocol was approved by Cornell Animal Care and Use Committee. An 8-week feeding trial was conducted at Cornell University Swine Research Farm. Thirty weanling pigs (Yorkshire×Hampshire×Landrace, body weight=8.6±0.5 kg) were allocated into three groups (n=10). […] were fed a corn-soy basal diet (BD)+0.25% inorganic phosphorus (iP, dicalcium phosphate). Group 2 were fed BD+0.35% iP. Group 3 were fed BD+0.35% iP+3,400 units of phytase/kg (Escherichia coli appA2, OptiPhos, JBS United, Inc., Sheridan, Ind.). The BD (Table 7) contained adequate levels of all nutrients except for P^(63), and 0.25% iP is the supplementation level recommended by NRC^(24) to meet the P needs of this age of pigs. […] Pigs were housed in an environmentally-controlled barn (20-25° C.; 12-light: 12-dark cycle), and given free access to feed and water.\nAfter the skin and major muscles were removed, two left legs were subjected to X-ray radiography using a Faxitron machine (Model 43855A; Hewlett Packard, McMinnville, Oreg., USA). Bone radiographs of femur and metacarpals were quantified by the kodac software. The software counted the total number of pixels. Thereafter, the 3rd and 4th metacarpals and femurs were collected to measure length, weight, height, and width after removing the remaining muscle and connective tissue. After the X-ray analysis, the two left legs were used for bone mechanical and mineral testing. Bone mechanical properties were determined by a three-point bending test (ASAE Standard S459 1992) using an Instron 4500 Machine Universal Testing Instrument (Model 1122, Instron, Canton, Mass.) with Instron Series IX Automated Materials Testing System Software (version 4.05). During testing, force was applied to the center of the bone held by supports 2.0 cm apart for metacarpals and 3.3 cm apart for femurs. The crosshead speed was set at 50 mm/min and the sampling rate was at 10 points/sec. The extrinsic parameters (stiffness/slope, maximum load, energy to break, maximum displacement) were derived from the force-displacement curve. Bone breaking strength was calculated with the adjustment of bone weight, and the average strength of the 3rd and 4th metacarpal was used as the metacarpal strength for each pig.\nMetacarpals (4th) from right foot of pigs (n=5 for each group) were quickly fixed by 10% formalin for histology, decalcified, embedded in paraffin sagittally serially sectioned through the midline (8 μm), and stained with Masson's trichrome as previously described^(74). Variation of bone matrix mineralization was detected by modified tetrachrome method^(75). Sulfated proteoglycans were detected by alcian blue staining^(76) and counter staining with Mayer's acid haematoxylin. PCI software—CIMAGING System (Model 1280, Compix Inc., Cranberry, Pa.)—was applied to measure bone surface, osteoid, bone volume, trabecular thickness, number, and separation, and proteoglycans surface. Trabecular size and separation distances were measured by the software measurement scale. Trabecular numbers were counted within a specified field. For proteoglycans measurement, the total area of trabecular bone was first captured to define the region of interest (ROI). Then, within the ROI the blue color area of proteoglycans was captured and its area measured to define the object area. For osteoid measurement, the first cortical bone surface was the object. The area fraction of the deep green in the periosteal area was expressed as: Area fraction (%)=Object area/Region of interest (ROI)×100."}, "[2]": {"test_system": "pigs fed P-adequate corn-soybean meal basal diet", "assay": "Expt 2: metatarsal and femur breaking strength, three-point bending test", "conditions": "main effect, phytase 2,000 U/kg or Sr 50 mg/kg", "method": "(§1) Third and 4th metatarsals in both experiments and femur (right leg) in Experiment 2 were prepared by manually removing surrounding skin, muscle and other tissues. Bones were stored in closed plastic bags at 4° C. until strength analysis. Maximal breaking load was measured using an Instron 4500 Machine (Canton, Mass.) at room temperature (23° C.) by subjecting each bone to a three-point bending test^(28). During mechanical tests, force was applied to the center of the bone held by supports 2.0 cm apart for metatarsals and 3.3 cm apart for femur. The crosshead speed was set at 50 mm/min and the sample rate was 10 points/s. Final strength was determined from load-displacement curves indicating the maximum loads. The metatarsal breaking strength was expressed as the mean strength of four bones from both left and right feet of pigs in Experiment 1, and as the mean of the two bones from the right foot of pigs in Experiment 2."}, "[3]": {"test_system": "pigs fed P-adequate corn-soybean meal basal diet", "assay": "Expt 1: metatarsal mineral concentrations (ICP)"}, "[4]": {"test_system": "pigs fed P-adequate corn-soybean meal basal diet", "assay": "Expt 1: metatarsal breaking strength, three-point bending test", "conditions": "BD + phytase 2,000 U/kg, 6 wk", "method": "Based on results of the preliminary trials, Experiment 1 was conducted with 24 gilts (6-wk old, 8.6±0.1 kg body weight) to test the possible benefit of phytase to metatarsal breaking load of pigs fed the corn-soybean meal basal diet (BD, Table 1). The BD contained 0.33% available P and adequate concentrations of all other required nutrients (24). The selected pigs were divided into two groups (n=12), and were fed BD or BD+phytase at 2,000 U/kg for 6 wk.\nas §1, with “Experiment 2. […]” for “Experiment 2.”"}, "[5]": {"conditions": "0.35% iP + Sr 50 mg/kg + phytase 3,400 U/kg, P<0.001"}, "[6]": {"conditions": "phytase 3,400 U/kg into the 0.35% iP diet, P<0.001"}, "[7]": {"conditions": "phytase 3,400 U/kg into the 0.35% iP diet, P<0.05"}}, "data": [{"molecule": "Phytase: Escherichia coli AppA2 phytase (OptiPhos, JBS United, Inc.), added to diets at feed mixing; AppA2 is SEQ ID NO: 2 (protein, listed as Escherichia coli) MKAILIPFLSLLIPLTPQSAFAQSEPELKLESVVIVSRHGVRAPTKATQLMQDVTPDAWPTWPVKLGWLTPRGGELIAYLGHYQRQRLVADGLLAKKGCPQPGQVAIIADVDERTRKTGEAFAAGLAPDCAITVHTQADTSSPDPLFNPLKTGVCQLDNANVTDAILSRAGGSIADFTGHRQTAFRELERVLNFSQLNLCLNREKQDESCSLTQALPSELKVSADNVSLTGAVSLASMLTEIFLLQQAQGMPEPGWGRITDSHQWNTLLSLHNAQFYLLQRTPEVARSRATPLLDLIMAALTPHPPQKQAYGVTLPTSVLFIAGHDTNLANLGGALELNWTLPGQPDNTPPGGELVFERWRRLSDNSQWIQVSLVFQTLQQMRDKTPLSLNTPPGEVKLTLAGCEERNAQGMCSLAGFTQIVNEARIPACSL", "values": [{"measurement": "improvement of femur bone density (radiograph image pixel numbers) vs 0.35% iP", "setting": "[1]; [5]", "result": 28, "unit": "%"}, {"measurement": "improvement of metacarpus bone density (radiograph image pixel numbers) vs 0.35% iP", "setting": "[1]; [5]", "result": 20, "unit": "%"}, {"measurement": "increase in metacarpal bone volume vs 0.35% iP", "setting": "[1]; [5]", "result": 38, "unit": "%"}, {"measurement": "enhancement of osteoid thickness in the periosteal area", "setting": "[1]; [6]", "result": 60, "unit": "%"}, {"measurement": "increase of sulfated proteoglycans in cancellous bone", "setting": "[1]; [6]", "result": 18, "unit": "%"}, {"measurement": "decrease in trabecular separation, metacarpal bone", "setting": "[1]; [7]", "result": 37, "unit": "%"}, {"measurement": "increase in trabecular density, metacarpal bone", "setting": "[1]; [7]", "result": 42, "unit": "%"}, {"measurement": "increase in trabecular thickness, metacarpal bone", "setting": "[1]; [7]", "result": 51, "unit": "%"}, {"measurement": "improvement in breaking strength of femur", "setting": "[2]", "result": 20, "unit": "%"}, {"measurement": "improvement in breaking strength of metatarsals", "setting": "[2]", "result": 16, "unit": "%"}, {"measurement": "higher Sr concentration in metatarsals vs BD", "setting": "[3]; BD + phytase 2,000 U/kg, 6 wk, P<0.05", "result": 7, "unit": "%"}, {"measurement": "metatarsal Ca concentration", "setting": "[3]; phytase 2000 U/kg, n=8", "result": 217.3, "unit": "g/kg"}, {"measurement": "metatarsal Cr concentration", "setting": "[3]; phytase 2000 U/kg, n=8", "result": 6.4, "unit": "mg/kg"}, {"measurement": "metatarsal Fe concentration", "setting": "[3]; phytase 2000 U/kg, n=8", "result": 15.7, "unit": "mg/kg"}, {"measurement": "metatarsal Mg concentration", "setting": "[3]; phytase 2000 U/kg, n=8", "result": 3.6, "unit": "g/kg"}, {"measurement": "metatarsal Mn concentration", "setting": "[3]; phytase 2000 U/kg, n=8", "result": 1.1, "unit": "mg/kg"}, {"measurement": "metatarsal Na concentration", "setting": "[3]; phytase 2000 U/kg, n=8", "result": 6.2, "unit": "g/kg"}, {"measurement": "metatarsal P concentration", "setting": "[3]; phytase 2000 U/kg, n=8", "result": 109.2, "unit": "g/kg"}, {"measurement": "metatarsal S concentration", "setting": "[3]; phytase 2000 U/kg, n=8", "result": 1.2, "unit": "g/kg"}, {"measurement": "metatarsal Sr concentration", "setting": "[3]; phytase 2000 U/kg, n=8", "result": 62.8, "unit": "mg/kg"}, {"measurement": "metatarsal Zn concentration", "setting": "[3]; phytase 2000 U/kg, n=8", "result": 176.1, "unit": "mg/kg"}, {"measurement": "breaking strength of metatarsals", "setting": "[4]", "result": "112.0 ± 3.9", "unit": "kg"}, {"measurement": "greater breaking strength of metatarsals vs BD", "setting": "[4]; P<0.02", "result": 12, "unit": "%"}]}]}
